Laboratory results: patent publication US20180171001A1

B1: γ4κ3 (antibody, V domains shown)
VH: QIHLVQSGTEVKKPGSSVTVSCKAYGVNTFGLYAVNWVRQAPGQSLEYIGQIWRWKSSASHHFRGRVIISAVDLTGSSPPISPLEIKNLTSDDTAVYFCTTTSTSDRWSGLHHDGVMAFSSWGQGTLISVSA
VL: DIQMTQSPSTLSASIGDTVRISCRASQSITGNWLAWYHQRPGKAPRLLIYRGSRLLGGVPSRFSGSAAGTDFTLTIANLQAEDFGTFYCQQYDTYPGTFGQGTKVEVKR
B2: γ8κ3 (antibody, V domains shown)
VH: QIHLVQSGTGVKKPGSSVTVSCKAYGVNTFGLYAVNWVRQAPGQGLEYIGQIWRWKSSASHHFRGRVLISAVDLTGSSPPITSLEIKNVTSDDTAVYFCTTTSTYDKWSGLYHDGVMAFSSWGQGTLISVSA
VL: DIQMTQSPSTLSASIGDTVRISCRASQSITGNWLAWYHQRPGKAPRLLIYRGSRLLGGVPSRFSGSAAGTDFTLTIANLQAEDFGTFYCQQYDTYPGTFGQGTKVEVKR
B3: γ8κ11 (antibody, V domains shown)
VH: QIHLVQSGTGVKKPGSSVTVSCKAYGVNTFGLYAVNWVRQAPGQGLEYIGQIWRWKSSASHHFRGRVLISAVDLTGSSPPITSLEIKNVTSDDTAVYFCTTTSTYDKWSGLYHDGVMAFSSWGQGTLISVSA
VL: DIQMTQSPSTLSASVGGTVRISCRASQSITGGWLAWYHQRPGKAPRLLIYRGSRLLGGVPSRFSGSAAGTDFTLTIANLQAEDFGTFYCQQYDTYPGTFGQGTKVEVKR
B4: 8ANC3040 (antibody, V domains shown)
VH: QIHLVQSGTEVKKPGSSVTVSCKAYGVNTFGLYAVNWVRQAPGQSLEYIGQIWRWKSSASHHFRGRVLISAVDLTGSSPPISSLEIKNLTSDDTAVYFCTTTSTYDQWSGLHHDGVMAFSSWGQGTLISVSA
VL: DIQMTQSPSTLSASIGDTVRISCRASQSITGNWVAWYQQRPGKAPRLLIYRGAALLGGVPSRFSGSAAGTDFTLTIGNLQAEDFGTFYCQQYDTYPGTFGQGTKVEVKR
B5: γ15κ18 (antibody, V domains shown)
VH: QIHLVQSGTEVKKPGSSVTVSCKAYGVNTFGLYAVNWVRQAPGQSLEYIGQIWRWKSSASHHFRGRVIISAVDLTGSSPPISSLEIKNLTSDDTAVYFCTTASTYDKWSGLHHDGVMAFSSWGQGTLISVSA
VL: DIQMTQSPSTLSASVGDTVRISCRASQSITGGWLAWYHQRPGKAPRLLIYRGSRLLGGVPSRFSGSAAGADFTLTIANLQAEDFGTFYCQQYDTYPGTFGQGTKVEVKR

Assays:
Assay in all cases: cell-based or functional assay
[1] = molecular target: Env of HIV-1 strain 3016.v5.c45 (HIV-1)
[2] = molecular target: Env of HIV-1 strain 231965.c1 (HIV-1)
[3] = molecular target: Env of HIV-1 strain PVO.4 (HIV-1)
[4] = molecular target: Env of HIV-1 strain ZM53M.PB12 (HIV-1)
[5] = molecular target: Env of HIV-1 strain YU2.DG (HIV-1)
[6] = molecular target: Env of HIV-1 strain 3365.v2.c20 (HIV-1)
[7] = molecular target: Env of HIV-1 strain X1254_c3 (HIV-1)
[8] = molecular target: Env of HIV-1 strain REJO4541.67 (HIV-1)
[9] = molecular target: Env of HIV-1 strain ZM109F.PB4 (HIV-1)
[10] = molecular target: Env of HIV-1 strain 250-4 (HIV-1)
[11] = molecular target: Env of HIV-1 strain R1166.c1 (HIV-1)
[12] = molecular target: Env of HIV-1 strain 3415.v1.c1 (HIV-1)
[13] = molecular target: Env of HIV-1 strain 251-18 (HIV-1)
[14] = molecular target: Env of HIV-1 strain H086.8 (HIV-1)
[15] = molecular target: Env of HIV-1 strain Du172.17 (HIV-1)
[16] = molecular target: Env of MuLV

Binder	neutralization IC50 [1]	neutralization IC50 [2]	neutralization IC50 [3]	neutralization IC50 [4]	neutralization IC50 [5]	neutralization IC50 [6]	neutralization IC50 [7]	neutralization IC50 [8]	neutralization IC50 [9]	neutralization IC50 [10]	neutralization IC50 [11]	neutralization IC50 [12]	neutralization IC50 [13]	neutralization IC50 [14]	neutralization IC50 [15]	neutralization IC50 [16]
B1	> 15 µg/mL	> 15 µg/mL	> 15 µg/mL	> 15 µg/mL	> 15 µg/mL	> 15 µg/mL	18 µg/mL	> 15 µg/mL	> 15 µg/mL	> 15 µg/mL	> 15 µg/mL	> 15 µg/mL	> 15 µg/mL	> 15 µg/mL	> 15 µg/mL	
B2	2.38 µg/mL	3.48 µg/mL	> 15 µg/mL	> 15 µg/mL	5.41 µg/mL	> 15 µg/mL	4.01 µg/mL	> 15 µg/mL	> 15 µg/mL	> 15 µg/mL	7.6 µg/mL	> 15 µg/mL	> 15 µg/mL	> 15 µg/mL	> 15 µg/mL	> 18 µg/mL
B3	2.46 µg/mL	2.49 µg/mL	8.16 µg/mL	> 15 µg/mL	9.35 µg/mL	> 15 µg/mL	4.14 µg/mL	> 15 µg/mL	> 15 µg/mL	> 15 µg/mL	3.88 µg/mL	> 15 µg/mL	> 15 µg/mL	> 15 µg/mL	> 15 µg/mL	
B4	0.427 µg/mL	1.17 µg/mL	0.284 µg/mL	14.9 µg/mL	0.617 µg/mL	> 25 µg/mL	2.91 µg/mL	0.198 µg/mL			2.37 µg/mL	3.06 µg/mL	0.571 µg/mL			> 30 µg/mL
B5	0.664 µg/mL	1.49 µg/mL	1.59 µg/mL	> 15 µg/mL	1.17 µg/mL	> 15 µg/mL	2.85 µg/mL	> 15 µg/mL	> 15 µg/mL	> 15 µg/mL	1.99 µg/mL	> 15 µg/mL	> 15 µg/mL	> 15 µg/mL	> 15 µg/mL	
